# Columns and labels:
# [1] = target: human CD28 (endogenously expressed on primary human T cells) (human) (UniProt P10747); assay: flow cytometry, primary human T cells
# human PD-L1 [2] = target: T1, human PD-L1 (human, UniProt Q9NZQ7 19-290); assay: flow cytometry, SCC152 cells transduced with human PD-L1; MFI against WT CD80 ECD-Fc
# T1 construct: whole, on cells
# Method: (§1) Binding affinity to CD28 was determined using primary human T cells which endogenously express CD28. Binding to PD-L1 was determined using SCC152 cells transduced with human PD-L1. Binding to CTLA-4 was measured using Chinese hamster ovary (CHO) cells stably transduced to express human CTLA-4.
# (§2) For staining and analysis by flow cytometry, 75,000 human T cells, SCC152/PD-L1 cells, or CHO/CTLA-4 cells were plated in 96-well round-bottom plates. Cells were spun down and resuspended in staining buffer (PBS (phosphate buffered saline), 1% BSA (bovine serum albumin), 1 mM EDTA, and 0.1% sodium azide) for 20 minutes to block non-specific binding. Afterwards, cells were centrifuged, stain buffer aspirated, and then resuspended in 50 μL of a 1:5 serial dilution of each CD80-Fc candidate variant starting at 100 nM ending at 0.8 nM. Primary staining was performed on ice for 60 minutes, before washing cells in […] staining buffer three times. PE-conjugated anti-human Fc (Jackson ImmunoResearch, USA) was diluted 1:250 in 50 μL staining buffer and added to cells and incubated another 30 minutes at 4° C. Cells were washed two times in 150 μL stain buffer and then fixed in 2% formaldehyde/PBS for 5 minutes at room temperature. Samples were analyzed CytoFLEX LX flow cytometer (Beckman Coulter, USA). Median Fluorescence Intensity (MFI) was calculated for each cell type using the CytExpert software from Beckman Coulter.
# (§3) Binding assays were carried out to assess the specificity and affinity of multivalent proteins to cell-expressed CTLA-4, CD28, and PD-L1 counter structures.
# human PD-L1 [3] = target: T1, human PD-L1; assay: flow cytometry, SCC152 cells transduced with human PD-L1, anti-human Fc detection
# Method: as §1, §2, §3
# [4] = target: T2, human CTLA-4 on CHO cells (human, UniProt P16410 36-223); assay: flow cytometry, CHO/CTLA-4 cells
# T2 construct: whole, on cells; also called CHO/CTLA-4
# T2 sequence (P16410 36-223): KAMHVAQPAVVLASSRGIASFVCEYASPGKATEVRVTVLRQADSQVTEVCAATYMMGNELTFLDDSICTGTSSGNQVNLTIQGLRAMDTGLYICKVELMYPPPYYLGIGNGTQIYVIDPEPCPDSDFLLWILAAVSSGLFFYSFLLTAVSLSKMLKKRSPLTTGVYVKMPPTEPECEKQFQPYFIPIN
# Method: as §1, §2, §3
# human CD28 on cells [5] = target: T3, human CD28 on cells (human, UniProt P10747 19-220); assay: flow cytometry, primary human T cells
# T3 construct: whole, on cells
# Method: as §1, §2, §3
# human CD28 on cells [6] = target: T3, human CD28 on cells; assay: cell-based or functional assay
# T1 sequence (Q9NZQ7 19-290): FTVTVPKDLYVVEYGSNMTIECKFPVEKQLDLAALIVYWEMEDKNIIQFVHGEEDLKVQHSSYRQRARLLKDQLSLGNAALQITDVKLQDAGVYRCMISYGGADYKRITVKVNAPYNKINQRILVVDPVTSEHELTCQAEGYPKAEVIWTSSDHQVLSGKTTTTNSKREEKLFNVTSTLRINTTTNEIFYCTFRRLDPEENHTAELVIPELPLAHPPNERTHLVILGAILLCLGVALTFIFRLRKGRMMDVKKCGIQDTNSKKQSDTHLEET
Molecule,MFI (anti-human Fc) at 0.8 nM [1] [MFI],MFI (anti-human Fc) at 4 nM [1] [MFI],MFI (anti-human Fc) at 20 nM [1] [MFI],Anti-Human Fc (MFI) at 0.8 nM [4] [MFI],Anti-Human Fc (MFI) at 4 nM [4] [MFI],Anti-Human Fc (MFI) at 20 nM [4] [MFI],Anti-Human Fc (MFI) at 100 nM [4] [MFI],Anti-Human Fc (MFI) at 0.8 nM (human CD28 on cells [5]) [MFI],Anti-Human Fc (MFI) at 4 nM (human CD28 on cells [5]) [MFI],Anti-Human Fc (MFI) at 20 nM (human CD28 on cells [5]) [MFI],Anti-Human Fc (MFI) at 100 nM (human CD28 on cells [5]) [MFI],also measured
"CD80_223-Fc, variant CD80 IgV-Fc E10S/V68M/Y87P (Fc fusion)",190,195,223,,,,,,,,,MFI (anti-human Fc) at 100 nM [1]: 318 MFI; fold change of MFI vs WT CD80 at 20 nM [1]: 1.2 fold
"CD80_188-Fc, variant CD80 IgV-Fc E35D/V68L/L85E (Fc fusion)",201,191,224,,,,,,,,,
"CD80-Fc-CD80_338 (CD80_180 E10G/V11W/T28Y/M47L, IgG1 Fc) (Fc fusion, tetravalent) VIHVTKEVKGWATLSCGHNVSVEELAQYRIYWQKEKKMVLTMMSGDLNIWPEYKNRTIFDITNNLSIVILALRPSDEGTYECVVLKYEKDAFKREHLAEVTLSVKADGSGGGGSDKTHTCPPCPAPEAEGAPSVFLFPPKPKDTLMISRTPEVTCVVVDVSHEDPEVKFNWYVDGVEVHNAKTKPREEQYNSTYRVVSVLTVLHQDWLNGKEYKCKVSNKALPAPIEKTISKAKGQPREPQVYTLPPSRDELTKNQVSLTCLVKGFYPSDIAVEWESNGQPENNYKTTPPVLDSDGSFFLYSKLTVDKSRWQQGNVFSCSVMHEALHNHYTQKSLSLSPGGGGGSGGGGSGGGGSVIHVTKEVKGWATLSCGYNVSVEELAQYRIYWQKEKKMVLTMMSGDLNIWPEYKNRTIFDITNNLSIVILALRPSDEGTYECVVLKYEKDAFKREHLAEVTLSVKAD",,,,,,,,,,,,Fold change vs WT CD80 @20 nM (human PD-L1 [2]): 16.2 fold; Anti-Human Fc (MFI) at 0.8 nM (human PD-L1 [3]): 6250 MFI; Anti-Human Fc (MFI) at 4 nM (human PD-L1 [3]): 9300 MFI; Anti-Human Fc (MFI) at 20 nM (human PD-L1 [3]): 11000 MFI; Anti-Human Fc (MFI) at 100 nM (human PD-L1 [3]): 12500 MFI
"CD80-Fc-CD80_339 (Fc fusion, also called CD80_185 V11Y/T28Y/M47L barbell) VIHVTKEVKEYATLSCGHNVSVEELAQYRIYWQKEKKMVLTMMSGDLNIWPEYKNRTIFDITNNLSIVILALRPSDEGTYECVVLKYEKDAFKREHLAEVTLSVKADGSGGGGSPCPPCPAPEFLGGPSVFLFPPKPKDTLMISRTPEVTCVVVDVSQEDPEVQFNWYVDGVEVHNAKTKPREEQFNSTYRVVSVLTVLHQDWLNGKEYKCKVSNKGLPSSIEKTISKAKGQPREPQVYTLPPSQEEMTKNQVSLTCLVKGFYPSDIAVEWESNGQPENNYKTTPPVLDSDGSFFLYSRLTVDKSRWQEGNVFSCSVMHEALHNHYTQKSLSLSLGGGGGSGGGGSGGGGSVIHVTKEVKEYATLSCGYNVSVEELAQYRIYWQKEKKMVLTMMSGDLNIWPEYKNRTIFDITNNLSIVILALRPSDEGTYECVVLKYEKDAFKREHLAEVTLSVKAD",,,,210000,305000,322000,320000,520,793,1020,1380,
"CD80-Fc-CD80_339 (CD80_185 V11Y/T28Y/M47L) (Fc fusion, tetravalent) VIHVTKEVKEYATLSCGHNVSVEELAQYRIYWQKEKKMVLTMMSGDLNIWPEYKNRTIFDITNNLSIVILALRPSDEGTYECVVLKYEKDAFKREHLAEVTLSVKADGSGGGGSPCPPCPAPEFLGGPSVFLFPPKPKDTLMISRTPEVTCVVVDVSQEDPEVQFNWYVDGVEVHNAKTKPREEQFNSTYRVVSVLTVLHQDWLNGKEYKCKVSNKGLPSSIEKTISKAKGQPREPQVYTLPPSQEEMTKNQVSLTCLVKGFYPSDIAVEWESNGQPENNYKTTPPVLDSDGSFFLYSRLTVDKSRWQEGNVFSCSVMHEALHNHYTQKSLSLSLGGGGGSGGGGSGGGGSVIHVTKEVKEYATLSCGYNVSVEELAQYRIYWQKEKKMVLTMMSGDLNIWPEYKNRTIFDITNNLSIVILALRPSDEGTYECVVLKYEKDAFKREHLAEVTLSVKAD",,,,,,,,,,,,Fold change vs WT CD80 @20 nM (human PD-L1 [2]): 10.4 fold; Anti-Human Fc (MFI) at 0.8 nM (human PD-L1 [3]): 4180 MFI; Anti-Human Fc (MFI) at 4 nM (human PD-L1 [3]): 6180 MFI; Anti-Human Fc (MFI) at 20 nM (human PD-L1 [3]): 7120 MFI; Anti-Human Fc (MFI) at 100 nM (human PD-L1 [3]): 8090 MFI
"CD80-Fc-CD80_341 (Fc fusion, also called CD80_197 V11Y/E35D/Y87Q/T101R barbell) VIHVTKEVKEYATLSCGHNVSVEELAQTRIYWQKDKKMVLTMMSGDMNIWPEYKNRTIFDITNNLSIVILALRPSDEGTYECVVLKQEKDAFKREHLAEVRLSVKADGSGGGGSPCPPCPAPEFLGGPSVFLFPPKPKDTLMISRTPEVTCVVVDVSQEDPEVQFNWYVDGVEVHNAKTKPREEQFNSTYRVVSVLTVLHQDWLNGKEYKCKVSNKGLPSSIEKTISKAKGQPREPQVYTLPPSQEEMTKNQVSLTCLVKGFYPSDIAVEWESNGQPENNYKTTPPVLDSDGSFFLYSRLTVDKSRWQEGNVFSCSVMHEALHNHYTQKSLSLSLGGGGGSGGGGSGGGGSVIHVTKEVKEYATLSCGYNVSVEELAQTRIYWQKDKKMVLTMMSGDMNIWPEYKNRTIFDITNNLSIVILALRPSDEGTYECVVLKQEKDAFKREHLAEVRLSVKAD",,,,206000,280000,297000,282000,676,1070,1410,1740,"Fold change vs WT CD80 @20 nM [4]: 0.36 fold; Fold Increase over WT at 50 nM (human CD28 on cells [6]): 6.42 fold; Rel. Luminescence Units (RLU) at 2 nM, K562/OKT3/PD-L1 + Jurkat/IL-2 reporter (human CD28 on cells [6]): 13100 RLU; Rel. Luminescence Units (RLU) at 10 nM, K562/OKT3/PD-L1 + Jurkat/IL-2 reporter (human CD28 on cells [6]): 16000 RLU; Rel. Luminescence Units (RLU) at 50 nM, K562/OKT3/PD-L1 + Jurkat/IL-2 reporter (human CD28 on cells [6]): 15700 RLU; Rel. Luminescence Units (RLU) at 250 nM, K562/OKT3/PD-L1 + Jurkat/IL-2 reporter (human CD28 on cells [6]): 15200 RLU; Fold change vs WT CD80 @20 nM (human CD28 on cells [5]): 7.8 fold"

# Second part, led by results:
MFI (anti-human Fc) at 0.8 nM [1] [MFI],MFI (anti-human Fc) at 4 nM [1] [MFI],MFI (anti-human Fc) at 20 nM [1] [MFI],Anti-Human Fc (MFI) at 0.8 nM [4] [MFI],Anti-Human Fc (MFI) at 4 nM [4] [MFI],Anti-Human Fc (MFI) at 20 nM [4] [MFI],Anti-Human Fc (MFI) at 100 nM [4] [MFI],Anti-Human Fc (MFI) at 0.8 nM (human CD28 on cells [5]) [MFI],Anti-Human Fc (MFI) at 4 nM (human CD28 on cells [5]) [MFI],Anti-Human Fc (MFI) at 20 nM (human CD28 on cells [5]) [MFI],Anti-Human Fc (MFI) at 100 nM (human CD28 on cells [5]) [MFI],Molecule,also measured
245,246,262,,,,,,,,,"CD80_194-Fc, variant CD80 IgV-Fc V11Y/M42W/T62A (Fc fusion)",MFI (anti-human Fc) at 100 nM [1]: 298 MFI; fold change of MFI vs WT CD80 at 20 nM [1]: 1.5 fold
,,,367000,439000,470000,511000,552,926,1350,2330,CD80-Fc-CD80_338 (Fc fusion) VIHVTKEVKGWATLSCGHNVSVEELAQYRIYWQKEKKMVLTMMSGDLNIWPEYKNRTIFDITNNLSIVILALRPSDEGTYECVVLKYEKDAFKREHLAEVTLSVKADGSGGGGSDKTHTCPPCPAPEAEGAPSVFLFPPKPKDTLMISRTPEVTCVVVDVSHEDPEVKFNWYVDGVEVHNAKTKPREEQYNSTYRVVSVLTVLHQDWLNGKEYKCKVSNKALPAPIEKTISKAKGQPREPQVYTLPPSRDELTKNQVSLTCLVKGFYPSDIAVEWESNGQPENNYKTTPPVLDSDGSFFLYSKLTVDKSRWQQGNVFSCSVMHEALHNHYTQKSLSLSPGGGGGSGGGGSGGGGSVIHVTKEVKGWATLSCGYNVSVEELAQYRIYWQKEKKMVLTMMSGDLNIWPEYKNRTIFDITNNLSIVILALRPSDEGTYECVVLKYEKDAFKREHLAEVTLSVKAD,

# From patent US20250243260A1 (ALPINE IMMUNE SCIENCES, published 2025)
